Seven molecules from patent US20110014669A1, “Production of 1,4 Butanediol in a Microorganism” (Microbia, Inc., priority 2009, published 2011) can be followed below.

Experiment [1] has as its system 5-hydroxy-2-oxopentanoate. Briefly: Enzyme assay, decarboxylase (step A5), aldehyde dehydrogenase linked reaction. Format: biochemical. The arrangement: key: +: measureable activity detected in the assay; −: no measurable activity detected in the assay. The following applies: BDO biosynthetic pathway step A5. As to the method: (§1) Enzyme expression and crude lysate preparation. The enzymatic activity of each candidate enzyme is evaluated, first in E. coli and subsequently in C. glutamicum. It will be apparent to one of skill in the art that the expression and lysate preparations may need to be modified depending on the host cell and recombinant gene of interest.
(§2) E. coli: E. coli strains transformed with expression clones, for example, pUC18 or MB4124 based clones having a medium strong constitutive promoter regulating the recombinant gene of interest, are grown aerobically in LB medium (Difco) containing the appropriate antibiotic(s). At an OD600 of 0.5, IPTG is added to a final concentration of 0.25 mM. The cultures are grown to a final OD600 of 1.5 at which time the cells are collected and harvested by centrifugation. Cell pellets are resuspended in BugBuster (Novagen) reagent containing benzonase and lysozyme. Alternatively, E. coli strains transformed with expression clones, are grown overnight aerobically at 37° C. in BHI containing the appropriate antibiotic(s). 300 μL of fresh overnight culture is used to inoculate 2.7 mL BHI containing 0.25 mM IPTG and the appropriate antibiotic. The cultures are grown aerobically for 4-5 hours at 37° C. at which time the cells are collected and harvested by centrifugation. Cell pellets are frozen at −80° C. for at least 15 minutes, then thawed and resuspended in BugBuster (Novagen) reagent. Lysis and lysate collection are performed according to the manufacturer's instructions and, for example, may involve use of a sonicator and/or French press. Cleared lysates are stored on ice until enzyme assays are performed.
(§3) C. glutamicum: C. glutamicum strains transformed with MB4124 expression clones containing the recombinant gene of interest are grown aerobically in BHI broth supplemented with the proper antibiotic(s). At an OD600 of 0.5, IPTG is added to a final concentration of 0.25 mM. The cultures are grown to a final OD600 of 1.5 at which time the cells are collected and harvested by centrifugation. The pellet is washed once in one volume of water and resuspended in lysis buffer (1.0 ml 1.0 M HEPES buffer, pH 7.5, 0.5 ml 1M KOH, 10 μl 0.5M EDTA, protease inhibitor cocktail, water to 5 ml; the final pH will vary depending on the individual enzyme being tested) and one volume of 0.1 mm acid washed glass beads. The mixture is repeatedly alternately vortexed and held on ice for 15 seconds, eight times. After centrifugation for 5 min at 4,000 rpm, the supernatant lysate is removed and respun for 20 min at 10,000 rpm. Alternatively, C. glutamicum strains transformed with MB4124 expression clones containing the recombinant gene of interest are grown aerobically overnight in BHI broth supplemented with the proper antibiotic(s). Five mL of fresh overnight culture is used to inoculate 200 mL BHI containing 0.25 mM IPTG and the appropriate antibiotic. The cultures are grown aerobically at 30° C. for 5-7 hours at which time the cells are collected and harvested by centrifugation at 4° C. The pellet is resuspended in 15 mL ice cold 39 mM KH2PO4, 61 mM K2HPO4, 0.5 M KCl and lysed using a BioSpec BeadBeater and following the manufacturer's instructions. The lysate is centrifuged at 16,000 RPM at 4° C. for 30 minutes and the supernatant retained on ice as the extract.
Protein Assays. Protein concentrations in lysates are determined according to the methods of Bradford et al. (Anal. Biochem. 72:248-254 [1976]) or by the method of Smith et al. (Anal. Biochem. 150(1):76-85 [1985]) and lysates are assayed according to the methods below.
Enzyme Assays. Enzyme assays are performed on the cell lysates prepared above. The activity for each recombinant enzyme is compared to a lysate from a vector only control culture which is generated in a fashion identical to the recombinant enzyme lysate. […]

In experiment [2] the test system is L-glutamate 5-semialdehyde (GSA). Briefly: Enzyme assay, oxidoreductase (step A3), cell lysates. In kind it is biochemical. Details: key: +: measureable activity detected in the assay; −: no measurable activity detected in the assay. The settings on record: BDO biosynthetic pathway step A3. As to the method: as §1, §2
as §3, with “The lysate is centrifuged at 16,000 RPM at 4° C. for 30 minutes and the supernatant retained on ice as the extract.” left out
Protein Assays. Protein concentrations in lysates are determined according to the methods of Bradford et al. (Anal. Biochem. 72:248-254 [1976]) or by the method of Smith et al. (Anal. Biochem. 150(1):76-85 [1985]) and lysates are assayed according to the methods below. […]

B1: KgdMs: Enzyme candidate for BDO biosynthetic pathway step A5, SEQ ID NO. 69 (protein, listed as Mycobacterium smegmatis)
chain: MSSSPSPFGQNEWLVEEMYRKFRDDPSSVDPSWHEFLVDYSPEPTTDSASNGRTTTAAPVTPPTPAPAPAPEPKAAPKPAAKTEAKPAKPAKSATPAKGDESQILRGAAAAVVKNMNASLEVPTATSVRAIPAKLMIDNRVVINNHLKRTRGGKISFTHLLGYAIVQAVKKFPNMNRHFAVVDGKPTAITPAHTNLGLAIDLQGKDGNRSLVVAAIKRCETMRFGQFIAAYEDIVRRARDGKLTAEDFSGVTISLTNPGTLGTVHSVPRLMQGQGAIIGAGAMEYPAEFQGASEERIADLGIGKLITLTSTYDHRIIQGAESGDFLRTIHQLLLDDDFFDEIFRELGIPYEPVRWRTDNPDSIEDKNARVIELIAAYRNRGHLMADIDPLRLDNTRFRSHPDLDVNSHGLTLWDLDREFKVDGFAGVQRKKLRDILSVLRDAYCRHVGVEYTHILEPEQQRWIQERVETKHDKPTVAEQKYILSKLNAAEAFETFLQTKYVGQKRFSLEGAETVIPMMDAVIDQCAEHGLDEVVIAMPHRGRLNVLANIVGKPYSQIFSEFEGNLNPSQAHGSGDVKYHLGATGTYIQMFGDNDIEVSLTANPSHLEAVDPVLEGLVRAKQDLLDTGEEGSDNRFSVVPLMLHGDAAFAGQGVVAETLNLALLRGYRTGGTIHIVVNNQIGFTTAPTDSRSSEYCTDVAKMIGAPIFHVNGDDPEACAWVARLAVDFRQAFKKDVVIDMLCYRRRGHNEGDDPSMTQPYMYDVIDTKRGSRKAYTEALIGRGDISMKEAEDALRDYQGQLERVFNEVRELEKHEIEPSESVEADQQIPSKLATAVDKAMLQRIGDAHLALPEGFTVHPRVRPVLEKRREMAYEGRIDWAFAELLALGSLIAEGKLVRLSGQDTQRGTFTQRHAVIVDRKTGEEFTPLQLLATNPDGTPTGGKFLVYNSALSEFAAVGFEYGYSVGNPDAMVLWEAQFGDFVNGAQSIIDEFISSGEAKWGQLSDVVLLLPHGHEGQGPDHTSGRIERFLQLWAEGSMTIAMPSTPANYFHLLRRHGKDGIQRPLIVFTPKSMLRNKAAVSDIRDFTESKFRSVLEEPMYTDGEGDRNKVTRLLLTSGKIYYELAARKAKENREDVAIVRIEQLAPLPRRRLAETLDRYPNVKEKFWVQEEPANQGAWPSFGLTLPEILPDHFTGLKRISRRAMSAPSSGSSKVHAVEQQEILDTAFG
As for B1, the “Enzyme Assay” value in experiment [1] is “−”.

B2: HomCg: Enzyme candidate for BDO biosynthetic pathway step A3, SEQ ID NO. 22 (protein, listed as Corynebacterium glutamicum)
chain: MTSASAPSFNPGKGPGSAVGIALLGFGTVGTEVMRLMTEYGDELAHRIGGPLEVRGIAVSDISKPREGVAPELLTEDAFALIEREDVDIVVEVIGGIEYPREVVLAALKAGKSVVTANKALVAAHSAELADAAEAANVDLYFEAAVAGAIPVVGPLRRSLAGDQIQSVMGIVNGTTNFILDAMDSTGADYADSLAEATRLGYAEADPTADVEGHDAASKAAILASIAFHTRVTADDVYCEGISNISAADIEAAQQAGHTIKLLAICEKFTNKEGKSAISARVHPTLLPVSHPLASVNKSFNAIFVEAEAAGRLMFYGNGAGGAPTASAVLGDVVGAARNKVHGGRAPGESTYANLPIADFGETTTRYHLDMDVEDRVGVLAELASLFSEQGISLRTIRQEERDDDARLIVVTHSALESDLSRTVELLKAKPVVKAINSVIRLERD
For the molecule B2, the “Enzyme Assay” value in experiment [2] is given as “−”.

B3: UlaDEc: Enzyme candidate for BDO biosynthetic pathway step A5, SEQ ID NO. 68 (protein, listed as Escherichia coli)
chain: MSLPMLQVALDNQTMDSAYETTRLIAEEVDIIEVGTILCVGEGVRAVRDLKALYPHKIVLADAKIADAGKILSRMCFEANADWVTVICCADINTAKGALDVAKEFNGDVQIELTGYWTWEQAQQWRDAGIGQVVYHRSRDAQAAGVAWGEADITAIKRLSDMGFKVTVTGGLALEDLPLFKGIPIHVFIAGRSIRDAASPVEAARQFKRSIAELWG
As to B3, the “Enzyme Assay” value in experiment [1] was “−”.

B4: YiaQEc: Enzyme candidate for BDO biosynthetic pathway step A5, SEQ ID NO. 67 (protein, listed as Escherichia coli)
chain: MSRPLLQLALDHSSLEAAQRDVTLLKDSVDIVEAGTILCLNEGLGAVKALREQCPDKIIVADWKVADAGETLAQQAFGAGANWMTIICAAPLATVEKGHAMAQRCGGEIQIELFGNWTLDDARDWHRIGVRQAIYHRGRDAQASGQQWGEADLARMKALSDIGLELSITGGITPADLPLFKDIRVKAFIAGRALAGAANPAQVAGDFHAQIDAIWGGARA
For the molecule B4, the “Enzyme Assay” value in experiment [1] is given as “−”.

B5: LysAEc: Enzyme candidate for BDO biosynthetic pathway step A5, SEQ ID NO. 66 (protein, listed as Escherichia coli)
chain: MPHSLFSTDTDLTAENLLRLPAEFGCPVWVYDAQIIRRQIAALKQFDVVRFAQKACSNIHILRLMREQGVKVDSVSLGEIERALAAGYNPQTHPDDIVFTADVIDQATLERVSELQIPVNAGSVDMLDQLGQVSPGHRVWLRVNPGFGHGHSQKTNTGGENSKHGIWYTDLPAALDVIQRHHLQLVGIHMHIGSGVDYAHLEQVCGAMVRQVIEFGQDLQAISAGGGLSVPYQQGEEAVDTEHYYGLWNAAREQIARHLGHPVKLEIEPGRFLVAQSGVLITQVRSVKQMGSRHFVLVDAGFNDLMRPAMYGSYHHISALAADGRSLEHAPTVETVVAGPLCESGDVFTQQEGGNVETRALPEVKAGDYLVLHDTGAYGASMSSNYNSRPLLPEVLFDNGQARLIRRRQTIEELLALELL
In the case of B5, in experiment [1], the “Enzyme Assay” value was “−”.

B6: HomAu: Enzyme candidate for BDO biosynthetic pathway step A3, SEQ ID NO. 24 (protein, listed as Arthrobacter aurescens)
chain: MSEMRTLKVALLGCGNVGAQVARILIDDAEALAARSGARLELSGIAVRNVDSPRDVELPRELFTTDADTLVKDADLVIELMGGIEPARSLILTAIQNGACVVTGNKALLAQDGPTLYEEADKAGVQLSYEAAVAGAIPILRPIRDSLSGDRITRVLGIVNGTTNFILDQMDSTGAQFADALAEAQRLGYAEADPTADVEGHDAAAKAAILASLSFHTRFSLDDVYCEGITKVSAADIASAKEAGFVIKLLAIAEKIDSSDNGSGISVRVHPTLLPREHPLAAVRGAFNAVFIEAENAGELMFYGQGAGGTPTASAVLGDLVSAARRLVLGGPGRTETTTGHVPALAIDASNTSYYIGLDVADQAGVLARIAHIFAENGVSIEIMRQTIHRDSASNVESAELKIVTHRASEAALAATVEAVKGLDVINSVTSVLRVEGV
Turning to B6, the “Enzyme Assay” value in experiment [2] is listed as “−”.

B7: ARO10Sc: Enzyme candidate for BDO biosynthetic pathway step A5, SEQ ID NO. 70 (protein, listed as Saccharomyces cerevisiae)
chain: MAPVTIEKFVNQEERHLVSNRSATIPFGEYIFKRLLSIDTKSVFGVPGDFNLSLLEYLYSPSVESAGLRWVGTCNELNAAYAADGYSRYSNKIGCLITTYGVGELSALNGIAGSFAENVKVLHIVGVAKSIDSRSSNFSDRNLHHLVPQLHDSNFKGPNHKVYHDMVKDRVACSVAYLEDIETACDQVDNVIRDIYKYSKPGYIFVPADFADMSVTCDNLVNVPRISQQDCIVYPSENQLSDIINKITSWIYSSKTPAILGDVLTDRYGVSNFLNKLICKTGIWNFSTVMGKSVIDESNPTYMGQYNGKEGLKQVYEHFELCDLVLHFGVDINEINNGHYTFTYKPNAKIIQFHPNYIRLVDTRQGNEQMFKGINFAPILKELYKRIDVSKLSLQYDSNVTQYTNETMRLEDPTNGQSSIITQVHLQKTMPKFLNPGDVVVCETGSFQFSVRDFAFPSQLKYISQGFFLSIGMALPAALGVGIAMQDHSNAHINGGNVKEDYKPRLILFEGDGAAQMTIQELSTILKCNIPLEVIIWNNNGYTIERAIMGPTRSYNDVMSWKWTKLFEAFGDFDGKYTNSTLIQCPSKLALKLEELKNSNKRSGIELLEVKLGELDFPEQLKCMVEAAALKRNKK
For the molecule B7, the “Enzyme Assay” value in experiment [1] is recorded as “−”.
